Laboratory results taken from the supplement of paper PMC9112550, “Optimization of the antimicrobial peptide Bac7 by deep mutational scanning” (BMC Biology, 2022).

Test system: Escherichia coli TOP10
Assay: shrunken log2 fold change of peptide-encoding DNA abundance (4.5 h post-induction vs induction); higher = less antimicrobial activity (less host growth inhibition)
Details: time post-induction: 4.5 h; library: site-saturation at positions 5, 18, 19, 20
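Also: peptides expressed intracellularly from a pBAD plasmid library in pooled LB shake-flask culture, induced with 0.3% L-arabinose, DNA abundance read by NGS, three biological replicates, DESeq2 with apeglm shrinkage.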

Row | Sequence | shrunken log2 fold change
1 | RRIRLRPPRLPRPRPRPENSPRP | 0.000683
2 | RRIRCRPPRLPRPRPRPCMQPRP | -0.345
3 | RRIRLRPPRLPRPRPRPLLAPRP | 0.188
4 | RRIRHRPPRLPRPRPRPWSFPRP | 0.0231
5 | RRIRVRPPRLPRPRPRPFMLPRP | -0.279
6 | RRIRDRPPRLPRPRPRPMLIPRP | -0.0943
7 | RRIRQRPPRLPRPRPRPQRCPRP | 0.0862
8 | RRIRQRPPRLPRPRPRPIVIPRP | 0.0668
9 | RRIRTRPPRLPRPRPRPKGSPRP | -0.0414
10 | RRIRSRPPRLPRPRPRPFFKPRP | -0.192
11 | RRIRYRPPRLPRPRPRPRIAPRP | 0.00898
12 | RRIRVRPPRLPRPRPRPQVGPRP | 0.251
13 | RRIRVRPPRLPRPRPRPIAWPRP | 0.468
14 | RRIRNRPPRLPRPRPRPGRMPRP | 0.0895
15 | RRIRPRPPRLPRPRPRPPPYPRP | 0.0995
16 | RRIRTRPPRLPRPRPRPTVHPRP | -0.199
17 | RRIRSRPPRLPRPRPRPTAEPRP | 0.825
18 | RRIRKRPPRLPRPRPRPKHFPRP | 0.024
19 | RRIRFRPPRLPRPRPRPQTRPRP | 0.149
20 | RRIRIRPPRLPRPRPRPVYNPRP | -0.314
21 | RRIRERPPRLPRPRPRPCPLPRP | -0.265
22 | RRIRKRPPRLPRPRPRPIICPRP | -0.0679
23 | RRIRRRPPRLPRPRPRPSSYPRP | -0.0808
24 | RRIRERPPRLPRPRPRPNMRPRP | 0.131
25 | RRIRCRPPRLPRPRPRPVTWPRP | -0.417

Row | Sequence | shrunken log2 fold change
26 | RRIRLRPPRLPRPRPRPYCAPRP | -0.151
27 | RRIRIRPPRLPRPRPRPTTMPRP | -0.394
28 | RRIRGRPPRLPRPRPRPHQKPRP | 0.0462
29 | RRIRDRPPRLPRPRPRPQVQPRP | -0.0379
30 | RRIRLRPPRLPRPRPRPARNPRP | 0.483
31 | RRIRKRPPRLPRPRPRPCKPPRP | -0.00919
32 | RRIRARPPRLPRPRPRPMLMPRP | 0.044
33 | RRIRGRPPRLPRPRPRPKKCPRP | 0.544
34 | RRIRDRPPRLPRPRPRPVPDPRP | -0.0933
35 | RRIRNRPPRLPRPRPRPTINPRP | -0.515
36 | RRIRMRPPRLPRPRPRPGDKPRP | 0.9
37 | RRIRWRPPRLPRPRPRPINQPRP | -0.0913
38 | RRIRLRPPRLPRPRPRPCWIPRP | -0.241
39 | RRIRYRPPRLPRPRPRPFQKPRP | -0.0884
40 | RRIRSRPPRLPRPRPRPCAGPRP | -0.0708
41 | RRIRFRPPRLPRPRPRPFKIPRP | -0.049
42 | RRIRDRPPRLPRPRPRPHYQPRP | 0.0231
43 | RRIRSRPPRLPRPRPRPCTLPRP | -0.399
44 | RRIRKRPPRLPRPRPRPKIMPRP | 0.193
45 | RRIRHRPPRLPRPRPRPNLDPRP | -1.17
46 | RRIRMRPPRLPRPRPRPTSKPRP | 0.0886
47 | RRIRLRPPRLPRPRPRPWTGPRP | -0.0428
48 | RRIRQRPPRLPRPRPRPTVQPRP | 0.226
49 | RRIRQRPPRLPRPRPRPTFVPRP | -0.692
50 | RRIRQRPPRLPRPRPRPRDIPRP | 0.0657

Row | Sequence | shrunken log2 fold change
51 | RRIRIRPPRLPRPRPRPNPYPRP | -0.659
52 | RRIRRRPPRLPRPRPRPQMDPRP | -0.0632
53 | RRIRVRPPRLPRPRPRPAREPRP | 0.254
54 | RRIRHRPPRLPRPRPRPANHPRP | -0.262
55 | RRIRYRPPRLPRPRPRPFCNPRP | -0.0455
56 | RRIRPRPPRLPRPRPRPDRSPRP | -0.1
57 | RRIRLRPPRLPRPRPRPSVKPRP | -0.0487
58 | RRIRARPPRLPRPRPRPFMEPRP | 0.0746
59 | RRIRGRPPRLPRPRPRPSAGPRP | 1.09
60 | RRIRERPPRLPRPRPRPRDFPRP | -0.134
61 | RRIRDRPPRLPRPRPRPFMAPRP | 0.035
62 | RRIRSRPPRLPRPRPRPINCPRP | -0.159
63 | RRIRGRPPRLPRPRPRPFWKPRP | 0.0889
64 | RRIRNRPPRLPRPRPRPGKHPRP | -0.0999
65 | RRIRERPPRLPRPRPRPWKEPRP | 0.0039
66 | RRIRRRPPRLPRPRPRPCWIPRP | 0.063
67 | RRIRFRPPRLPRPRPRPWMAPRP | -0.254
68 | RRIRFRPPRLPRPRPRPCPQPRP | -0.697
69 | RRIRKRPPRLPRPRPRPVMEPRP | 0.581
70 | RRIRWRPPRLPRPRPRPNPPPRP | 0.206
71 | RRIRMRPPRLPRPRPRPLNFPRP | -0.00433
72 | RRIRARPPRLPRPRPRPITSPRP | 0.157
73 | RRIRERPPRLPRPRPRPDDYPRP | -0.118
74 | RRIRGRPPRLPRPRPRPGYIPRP | -0.0887
75 | RRIRWRPPRLPRPRPRPPIHPRP | -0.448

Row | Sequence | shrunken log2 fold change
76 | RRIRGRPPRLPRPRPRPDARPRP | 0.34
77 | RRIRCRPPRLPRPRPRPGSTPRP | -0.474
78 | RRIRNRPPRLPRPRPRPRFMPRP | -0.098
79 | RRIRLRPPRLPRPRPRPGNAPRP | 0.0676
80 | RRIRLRPPRLPRPRPRPVERPRP | -0.0146
81 | RRIRCRPPRLPRPRPRPCNSPRP | -0.0476
82 | RRIRYRPPRLPRPRPRPLEAPRP | 0.0153
83 | RRIRWRPPRLPRPRPRPLEKPRP | 0.429
84 | RRIRRRPPRLPRPRPRPMGVPRP | 0.324
85 | RRIRQRPPRLPRPRPRPKLKPRP | -0.0236
86 | RRIRMRPPRLPRPRPRPSQPPRP | 0.22
87 | RRIRDRPPRLPRPRPRPWLRPRP | 0.081
88 | RRIRNRPPRLPRPRPRPQCNPRP | -0.468
89 | RRIRDRPPRLPRPRPRPCLMPRP | 0.209
90 | RRIRIRPPRLPRPRPRPRTVPRP | -0.197
91 | RRIRFRPPRLPRPRPRPQEAPRP | 0.201
92 | RRIRFRPPRLPRPRPRPFIKPRP | -0.648
93 | RRIRVRPPRLPRPRPRPKQCPRP | -0.141
94 | RRIRERPPRLPRPRPRPYHKPRP | -0.804
95 | RRIRLRPPRLPRPRPRPCCAPRP | 0.694
96 | RRIRKRPPRLPRPRPRPWRSPRP | -0.0167
97 | RRIRFRPPRLPRPRPRPTTWPRP | 0.0564
98 | RRIRSRPPRLPRPRPRPLSRPRP | 0.0301
99 | RRIRKRPPRLPRPRPRPMPLPRP | -0.00591
100 | RRIRTRPPRLPRPRPRPAFCPRP | 0.113

Row | Sequence | shrunken log2 fold change
101 | RRIRFRPPRLPRPRPRPERWPRP | 0.462
102 | RRIRCRPPRLPRPRPRPIMKPRP | -0.649
103 | RRIRRRPPRLPRPRPRPPCTPRP | 1.59
104 | RRIRRRPPRLPRPRPRPSIPPRP | -0.0753
105 | RRIRVRPPRLPRPRPRPLAMPRP | 0.209
106 | RRIRRRPPRLPRPRPRPKLRPRP | 1.25
107 | RRIRDRPPRLPRPRPRPELMPRP | 1.68
108 | RRIRKRPPRLPRPRPRPTSNPRP | 0.161
109 | RRIRWRPPRLPRPRPRPGLQPRP | 0.0651
110 | RRIRIRPPRLPRPRPRPFQNPRP | -0.296
111 | RRIRVRPPRLPRPRPRPKLYPRP | -0.0874
112 | RRIRCRPPRLPRPRPRPAVKPRP | -0.132
113 | RRIRGRPPRLPRPRPRPKFAPRP | 0.684
114 | RRIRCRPPRLPRPRPRPESTPRP | 0.0373
115 | RRIRYRPPRLPRPRPRPEFHPRP | 0.00393
116 | RRIRMRPPRLPRPRPRPSVWPRP | 0.275
117 | RRIRNRPPRLPRPRPRPTNCPRP | 0.143
118 | RRIRDRPPRLPRPRPRPFVDPRP | 0.063
119 | RRIRFRPPRLPRPRPRPHFCPRP | -1.02
120 | RRIRARPPRLPRPRPRPEAVPRP | 1.59
121 | RRIRERPPRLPRPRPRPIWIPRP | -0.222
122 | RRIRCRPPRLPRPRPRPFFVPRP | -0.209
123 | RRIRWRPPRLPRPRPRPHELPRP | -0.0349
124 | RRIRWRPPRLPRPRPRPCLWPRP | 0.0333
125 | RRIRWRPPRLPRPRPRPGVCPRP | 0.681

Row | Sequence | shrunken log2 fold change
126 | RRIRNRPPRLPRPRPRPGLWPRP | 0.737
127 | RRIRDRPPRLPRPRPRPTLSPRP | 0.262
128 | RRIRCRPPRLPRPRPRPKKTPRP | -0.142
129 | RRIRYRPPRLPRPRPRPAHMPRP | -0.015
130 | RRIRFRPPRLPRPRPRPMEHPRP | -0.416
131 | RRIRFRPPRLPRPRPRPSIHPRP | -0.84
132 | RRIRFRPPRLPRPRPRPPFCPRP | 0.0782
133 | RRIRNRPPRLPRPRPRPTGTPRP | 0.0526
134 | RRIRTRPPRLPRPRPRPGCDPRP | 0.256
135 | RRIRWRPPRLPRPRPRPDQYPRP | -0.154
136 | RRIRFRPPRLPRPRPRPNSKPRP | -0.464
137 | RRIRGRPPRLPRPRPRPWQQPRP | 0.0543
138 | RRIRHRPPRLPRPRPRPYTSPRP | -0.00159
139 | RRIRNRPPRLPRPRPRPPRMPRP | 0.24
140 | RRIRWRPPRLPRPRPRPTKTPRP | 0.0481
141 | RRIRDRPPRLPRPRPRPIKAPRP | -0.149
142 | RRIRQRPPRLPRPRPRPGGHPRP | 0.201
143 | RRIRSRPPRLPRPRPRPDYRPRP | -0.0371
144 | RRIRARPPRLPRPRPRPTIGPRP | 0.176
145 | RRIRVRPPRLPRPRPRPRGMPRP | 0.274
146 | RRIRDRPPRLPRPRPRPNMSPRP | -0.0444
147 | RRIRHRPPRLPRPRPRPAHTPRP | -0.199
148 | RRIRLRPPRLPRPRPRPGYKPRP | -0.514
149 | RRIRHRPPRLPRPRPRPHHQPRP | -0.364
150 | RRIRNRPPRLPRPRPRPGFLPRP | -0.105
